From patent publication US20020160516A1, “Episomal expression vector for human gene therapy and expression system for production of proteins” (priority 1993, published 2002)
In brackets after ≈: the same amount, converted by molar mass.

B1: SV-T: wild-type SV40 large T antigen (protein, UniProt P03070 1-708, looked up)
Large T antigen: MDKVLNREESLQLMDLLGLERSAWGNIPLMRKAYLKKCKEFHPDKGGDEEKMKKMNTLYKKMEDGVKYAHQPDFGGFWDATEIPTYGTDEWEQWWNAFNEENLFCSEEMPSSDDEATADSQHSTPPKKKRKVEDPKDFPSELLSFLSHAVFSNRTLACFAIYTTKEKAALLYKKIMEKYSVTFISRHNSYNHNILFFLTPHRHRVSAINNYAQKLCTFSFLICKGVNKEYLMYSALTRDPFSVIEESLPGGLKEHDFNPEEAEETKQVSWKLVTEYAMETKCDDVLLLLGMYLEFQYSFEMCLKCIKKEQPSHYKYHEKHYANAAIFADSKNQKTICQQAVDTVLAKKRVDSLQLTREQMLTNRFNDLLDRMDIMFGSTGSADIEEWMAGVAWLHCLLPKMDSVVYDFLKCMVYNIPKKRYWLFKGPIDSGKTTLAAALLELCGGKALNVNLPLDRLNFELGVAIDQFLVVFEDVKGTGGESRDLPSGQGINNLDNLRDYLDGSVKVNLEKKHLNKRTQIFPPGIVTMNEYSVPKTLQARFVKQIDFRPKDYLKHCLERSEFLLEKRIIQSGIALLLMLIWYRPVAEFAQSIQSRIVEWKERLDKEFSLSVYQKMKFNVAMGIGVLDWLRNSDDDDEDSQENADKNEDGGEKNMEDSGHETGIDSQSQGSFQAPQSSQSVHDHNQPYHICRGFTCFKKPPTPPPEPET

Key:
[1] = system: 107/402-T expression in HT-1376 tet-off clone; assay: Doxycycline control of 107/402-T expression in HT-1376 tet-off clone (Western blot); format: cell-based; conditions: Homo sapiens, 96 h, Western blot 4 days after exposure, read-out: half-maximal inhibitory concentration for 107/402-T expression
Source text: To prepare a human cell line in which expression of 107/402-T would be under control of doxycycline, HT-1376 human bladder carcinoma cells were sequentially transfected with three plasmid constructs: (a) pTET-OFF, which encodes the tetracycline-controlled transcriptional transactivator (tTA) under control of the CMV immediate-early promoter and the neomycin resistance gene under control of the SV40 early promoter, (b) pTRE.107/402-T, which encodes 107/402-T under control of the CMV minimal promoter and contains the tetracycline operon (binding site of tTA just upstream of the CMV minimal promoter), and (c) pCMVhygro, which encodes the hygromycin resistance gene under control of the CMV promoter. HT-1376 cells were first transfected with pTET-OFF, and neomycin resistant clones of stable transfectants were characterized by transiently transfecting clones with pTRE.luciferase in the presence or absence of doxycycline. Clones which yielded significant luciferase activity only in the absence of doxycycline (but no detectable luciferase activity in the presence of doxycycline) were then co-transfected with pTRE.107/402-T and pCMVhygro. Again, single cell clones of stable transfectants were screened for high basal levels of 107/402-T and complete turn-off of 107/402-T expression in the presence of doxycycline.
Steady-state levels of 107/402-T are achieved by 3 days. […]

human RB = target: T1, human RB (Homo sapiens, UniProt P06400); format: binding
T1 sequence (P06400 1-928): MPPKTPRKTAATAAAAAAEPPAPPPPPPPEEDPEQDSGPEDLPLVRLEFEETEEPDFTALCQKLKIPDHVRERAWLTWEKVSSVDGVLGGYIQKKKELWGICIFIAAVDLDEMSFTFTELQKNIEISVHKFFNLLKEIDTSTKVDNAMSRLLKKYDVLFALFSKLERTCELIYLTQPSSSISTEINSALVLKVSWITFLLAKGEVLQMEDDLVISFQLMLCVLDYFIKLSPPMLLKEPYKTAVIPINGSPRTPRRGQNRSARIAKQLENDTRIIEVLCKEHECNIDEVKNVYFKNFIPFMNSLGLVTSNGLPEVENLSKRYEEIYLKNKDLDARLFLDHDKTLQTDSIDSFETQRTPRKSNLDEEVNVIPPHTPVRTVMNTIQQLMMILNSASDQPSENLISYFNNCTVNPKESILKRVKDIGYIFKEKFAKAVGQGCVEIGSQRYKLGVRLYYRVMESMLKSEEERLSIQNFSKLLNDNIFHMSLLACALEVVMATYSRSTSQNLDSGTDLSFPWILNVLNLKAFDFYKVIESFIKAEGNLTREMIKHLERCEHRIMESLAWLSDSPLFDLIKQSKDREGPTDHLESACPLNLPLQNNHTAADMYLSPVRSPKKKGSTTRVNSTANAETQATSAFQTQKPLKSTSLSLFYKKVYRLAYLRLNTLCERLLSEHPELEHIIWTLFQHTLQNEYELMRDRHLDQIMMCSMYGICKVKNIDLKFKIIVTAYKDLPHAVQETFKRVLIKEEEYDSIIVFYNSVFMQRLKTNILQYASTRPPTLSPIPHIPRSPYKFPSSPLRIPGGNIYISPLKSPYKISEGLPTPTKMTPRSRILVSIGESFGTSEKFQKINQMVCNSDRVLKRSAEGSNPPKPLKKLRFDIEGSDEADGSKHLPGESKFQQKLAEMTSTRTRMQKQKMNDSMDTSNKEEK

T24 cell line = assay: Soft agar cloning of T24 clones expressing T antigens; conditions: T24 single cell clones expressing T antigen (SV-T clone A7, 402-T clone G1); ± se
Source text: Transformed cells were trypsinized and then passed through a 30-micron nylon filter (Tetko, Lancaster, N.Y.) to achieve a single cell suspension. The bottom layer of agar consisted of low glucose DMEM supplemented with 10% fetal calf serum and 0.6% Seaplaque agarose (FMC BioProducts, Rockland, Me.). The top layer contained serial dilutions of cells ranging between 10^3 and 10^6 in low-glucose DMEM supplemented with 10% fetal calf serum and 0.3% Seaplaque agarose.

p107 = target: T2, p107 (Homo sapiens, UniProt P28749); format: binding
T2 sequence (P28749 1-1068): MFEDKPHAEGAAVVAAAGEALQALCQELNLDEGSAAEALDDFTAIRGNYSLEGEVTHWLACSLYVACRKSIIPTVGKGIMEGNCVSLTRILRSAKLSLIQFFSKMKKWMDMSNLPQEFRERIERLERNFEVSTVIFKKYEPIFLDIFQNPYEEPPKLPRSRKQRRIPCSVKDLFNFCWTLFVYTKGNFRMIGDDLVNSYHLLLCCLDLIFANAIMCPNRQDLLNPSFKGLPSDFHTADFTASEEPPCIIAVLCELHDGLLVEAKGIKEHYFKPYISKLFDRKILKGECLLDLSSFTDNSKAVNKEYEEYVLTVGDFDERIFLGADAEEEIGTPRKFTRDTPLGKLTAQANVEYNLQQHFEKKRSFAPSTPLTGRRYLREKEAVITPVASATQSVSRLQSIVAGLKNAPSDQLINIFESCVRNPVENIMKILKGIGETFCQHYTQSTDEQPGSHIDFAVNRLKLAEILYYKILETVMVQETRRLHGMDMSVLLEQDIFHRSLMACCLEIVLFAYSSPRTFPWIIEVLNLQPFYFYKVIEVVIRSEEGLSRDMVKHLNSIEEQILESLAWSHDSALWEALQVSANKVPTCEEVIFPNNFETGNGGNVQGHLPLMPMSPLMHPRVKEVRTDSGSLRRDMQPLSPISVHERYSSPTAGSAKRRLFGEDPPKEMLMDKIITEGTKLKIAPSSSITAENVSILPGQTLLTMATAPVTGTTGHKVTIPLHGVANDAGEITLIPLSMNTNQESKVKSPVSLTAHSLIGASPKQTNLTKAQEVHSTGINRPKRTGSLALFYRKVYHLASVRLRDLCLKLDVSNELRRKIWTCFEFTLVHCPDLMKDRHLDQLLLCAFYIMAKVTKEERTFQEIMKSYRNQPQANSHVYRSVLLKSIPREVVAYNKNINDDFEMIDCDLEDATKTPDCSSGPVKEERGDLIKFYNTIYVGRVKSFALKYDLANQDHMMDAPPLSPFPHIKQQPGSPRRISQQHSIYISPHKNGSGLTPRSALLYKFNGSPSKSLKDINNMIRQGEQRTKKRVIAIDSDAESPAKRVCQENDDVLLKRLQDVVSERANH

p53 = p53 (Homo sapiens, UniProt P04637); format: binding
Sequence of p53 (P04637 whole entry): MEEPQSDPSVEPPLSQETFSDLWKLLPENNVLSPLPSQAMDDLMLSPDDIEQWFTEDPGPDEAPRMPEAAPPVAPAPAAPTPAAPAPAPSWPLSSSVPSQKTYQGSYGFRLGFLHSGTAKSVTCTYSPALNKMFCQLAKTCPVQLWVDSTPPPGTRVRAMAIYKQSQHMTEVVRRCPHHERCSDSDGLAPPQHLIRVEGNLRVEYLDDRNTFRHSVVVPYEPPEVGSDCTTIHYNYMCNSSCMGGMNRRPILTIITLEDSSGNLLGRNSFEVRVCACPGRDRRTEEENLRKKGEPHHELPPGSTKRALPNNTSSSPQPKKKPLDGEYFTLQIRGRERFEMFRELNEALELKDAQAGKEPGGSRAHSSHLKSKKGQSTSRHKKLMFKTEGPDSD

Row | Molecule | IC50 [1] | Observed signal compared to T, binding to RB (human RB) | soft agar cloning efficiency (T24 cell line) | Observed signal compared to T, binding to p107 (p107) | Observed signal compared to T, binding to p53 (p53)
1 | C[C@H]1c2cccc(O)c2C(=O)C2=C(O)[C@]3(O)C(=O)C(C(N)=O)=C(O)[C@@H](N(C)C)[C@@H]3[C@@H](O)[C@@H]21 [doxycycline] | ~0.01 ng/mL (≈ 0.0225 nM) | – | – | – | –
2 | B1 | – | 100% | 0.10%±0.02% | 100% | 100%
